Assay results reported in article PMC8751651 (ACS Omega, 2021).
Where no end group is shown, it is not given here. The star is where a group is joined. Biotin = O=C1N[C@H]2[C@H](CS[C@H]2CCCCC(=O)*)N1; Cam = NC(=O)C*

Target: Recombinant SARS-CoV-2 spike RBD protein (SARS-CoV-2, UniProt P0DTC2)
Experiment: SPR

Biotin-SC(Cam)FDFLNWASCDGGGS [biotinylated peptide 6 (second synthesis)] showed a Kd of ~19 µM.

Work on Biotin-SCFDFLNWASCDGGGS (cysteine pairing not given here) [biotinylated peptide 1 (second synthesis)] yielded a Kd of 5.8 µM.
